Numbering of substitutions follows the chain as printed. Numbers in names are those of the source. Entries after “also recorded” stand apart in the source; their conditions may differ.
Columns and labels:
EHD2 [1] = molecular target: T1, EHD2 (Mus musculus, UniProt Q8BH64); test: ITC nucleotide binding to EHD2; settings: ITC at 10° C.
T1 construct: Mouse EHD2 full-length protein and all mutants were expressed as N-terminal His-fusions followed by a PreScission cleavage site; His (N, cleaved yes); made in house; host or cells: Escherichia coli BL21 DE3 Rosetta
T1 sequence (Q8BH64 1-543): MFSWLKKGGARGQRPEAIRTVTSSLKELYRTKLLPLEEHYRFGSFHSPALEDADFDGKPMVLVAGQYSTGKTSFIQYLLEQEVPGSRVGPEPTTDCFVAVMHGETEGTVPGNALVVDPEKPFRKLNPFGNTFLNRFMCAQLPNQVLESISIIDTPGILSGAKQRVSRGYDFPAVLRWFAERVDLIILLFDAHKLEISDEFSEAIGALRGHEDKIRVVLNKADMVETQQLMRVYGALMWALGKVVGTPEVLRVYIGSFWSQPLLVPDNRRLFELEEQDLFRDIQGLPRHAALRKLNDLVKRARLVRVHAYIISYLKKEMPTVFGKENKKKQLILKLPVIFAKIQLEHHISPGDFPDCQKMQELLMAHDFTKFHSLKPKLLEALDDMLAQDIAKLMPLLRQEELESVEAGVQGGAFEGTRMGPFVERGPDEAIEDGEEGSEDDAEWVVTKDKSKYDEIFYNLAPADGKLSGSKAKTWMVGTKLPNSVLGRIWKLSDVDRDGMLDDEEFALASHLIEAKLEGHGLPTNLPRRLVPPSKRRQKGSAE
Description: (§1) Amino acid numbering corresponds to mouse EHD2. b, EHD2 binds to adenine nucleotides, as determined by ITC. For clarity, ΔΔH=ΔHn−ΔH1 is plotted. […] Images were acquired close to the basal cell surface. f, Nucleotide hydrolysis was measured by HPLC in the absence (empty symbols) or presence of Folch liposomes (filled symbols). Data represent mean and standard deviation for two (intrinisic reactions) or three (stimulated reactions) independent experiments.
(§2) ITC measurements were performed at 10° C. in 20 mM HEPES (pH 7.5), 300 mM NaCl, 2 mM MgCl2. Liposome binding assays were performed as described previously (www.endocytosis.org). Multiple turnover ATPase assays were performed in 20 mM HEPES (pH 7.5), 135 mM NaCl, 15 mM KCl, 1 mM MgCl2 at 30° C. with 10 μM EHD2 (or mutants) as enzyme and 100 μM ATP as substrate, in the absence or presence of 1 mg/ml Folch liposomes (Sigma-Aldrich).
Mouse full-length EHD2 was expressed in bacteria and purified to homogeneity (FIG. 5). The purified protein was nucleotide-free as judged by HPLC analysis. […] It was previously reported that EHDs—despite having a predicted G-domain—bind to adenine nucleotides^15. […] We still refer to this domain as a G-domain because the sequence and fold (see below) are clearly similar to other G-domains. […] Using synthetic liposomes containing various different phosphatidyl-inositols (PI) (FIG. 1c) we observed best binding to liposomes containing PI(4,5)bisphosphate (PIP2).

T94A mutant of EHD2 = molecular target: T2, T94A mutant of EHD2 (Mus musculus, UniProt Q8BH64, T94A); test: ITC nucleotide binding to EHD2 T94A mutant; settings: ITC as in FIG. 1b
T2 construct: Mouse EHD2 full-length protein and all mutants were expressed as N-terminal His-fusions followed by a PreScission cleavage site; His (N, cleaved yes); made in house; host or cells: Escherichia coli BL21 DE3 Rosetta
T2 sequence (Q8BH64 1-543 T94A): T1 sequence (Q8BH64 1-543) with T94A
Description: Nucleotide hydrolysis was measured as described in FIG. 1f. In vitro tubulation activity of PS liposomes was analysed as described in FIG. 1d. f, EGFP-tagged mutants were over-expressed in HeLa cells. […] For each construct, three independent experiments with ≈50 cells/experiments were analysed.
as §2
In small GTPases, the role of positioning the water molecule is assigned to a catalytic glutamine from switch II^26. We studied the role of ATP hydrolysis to gain insights into the function of EHD2 in vivo. […] To confirm the role of ATP hydrolysis in EHD function we re-introduced a catalytic glutamine in the active site, at the position normally found for small GTPases (I157Q). […] Many of these puncta were highly mobile as determined by live-cell microscopy.

EHD2(T72A) = molecular target: T3, EHD2(T72A) (Mus musculus, UniProt Q8BH64, T72A); test: ITC nucleotide binding to EHD2(T72A) P-loop mutant; settings: ITC at 10° C.
T3 construct: Mouse EHD2 full-length protein and all mutants were expressed as N-terminal His-fusions followed by a PreScission cleavage site; His (N, cleaved yes); made in house; host or cells: Escherichia coli BL21 DE3 Rosetta
T3 sequence (Q8BH64 1-543 T72A): T1 sequence (Q8BH64 1-543) with T72A
Description: as §1, §2
Mouse full-length EHD2 was expressed in bacteria and purified to homogeneity (FIG. 5). The purified protein was nucleotide-free as judged by HPLC analysis. […] It was previously reported that EHDs—despite having a predicted G-domain—bind to adenine nucleotides^15. […] We still refer to this domain as a G-domain because the sequence and fold (see below) are clearly similar to other G-domains. […]

[2] = molecular target: the molecule itself; test: negative stain EM on PS liposomes
[3] = Negative stain EM of liposome tubulation/oligomerisation; settings: 2.5 μM protein, PS liposomes
Description: as §1
EHD2 was incubated with the indicated liposomes in the presence and absence of nucleotides and analysed by EM as described in Methods. a, EHD2 deformed PS liposomes into tubular networks, here in the presence of ATP-γ-S. b, Enlarged views of the indicated area in a. Note the presence of regularly spaced EHD2 rings (some are indicated with arrows). This even spacing may be due to the curvature stress generated by an EHD2 ring along the axis of the lipid tubule which might disfavour binding of the next ring in the direct vicinity (see below). c, Some of the lipid tubules (especially at higher protein concentration) were tightly packed with EHD2 oligomeric rings. d,e In the presence of ADP and in the absence of nucleotide (f,g), EHD2 also tubulated PS liposomes and formed ring-like structures around the tubules. e,g are enlarged views of the indicated areas in d and f, respectively.
Reactions were started by the addition of the protein to the final reaction mix and nucleotide hydrolysis was followed using standard HPLC measurement^27. Initial rates were determined by applying a linear fit to data points up to 40% nucleotide hydrolysis. For electron microscopic studies, 2.5 μM EHD2 in 20 mM HEPES (pH 7.5), 150 mM NaCl, 1 mM MgCl2 was incubated for 15 min at 25° C. in the presence of 1 mM nucleotide and 0.05 mg/ml (final concentration) of the indicated liposomes. Samples were spotted on carbon-coated copper grids (Canemco and Marivac) and negatively stained with 2% uranyl acetate.
Nucleotide-independence of liposome tubulation in vitro is also observed for dynamin^16. No noticeable tubule fission or alteration in tubule diameter was found for EHD2 in the presence of ATP. […] Folch liposomes were also tabulated by EHD2. However, with synthetic liposomes containing only 2.5% PIP2 and in the absence of PS, the amount of EHD binding was reduced, and in this less favourable binding condition we only observed tubulation in the presence of ATP-γ-S and ADP but not in the absence of nucleotides (FIG. 7).

EHD2 [4] = molecular target: T1, EHD2; test: Multiple turnover ATPase assay (nucleotide hydrolysis by HPLC) with or without Folch liposomes; type: biochemical; settings: presence of Folch liposomes
Method in brief: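 10 μM EHD2 with 100 μM ATP in 20 mM HEPES pH 7.5, 135 mM NaCl, 15 mM KCl, 1 mM MgCl2 at 30 °C, with or without 1 mg/ml Folch liposomes. Reactions started by protein addition; hydrolysis tracked by HPLC, initial rates from linear fit up to 40% hydrolysis.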

HeLa cells = test: Over-expression of EGFP-tagged EHD2 and mutants in HeLa cells (confocal / live imaging); type: cell-based

Nc1ncnc2c1ncn2[C@@H]1O[C@H](COP(=O)(O)OP(=O)(O)OP(O)(O)=S)[C@@H](O)[C@H]1O [ATP-γ-S]
n (fitted ITC value), nucleotide binding to EHD2 (EHD2 [1]): 0.96 | Kd (EHD2 [1]; 20 mM HEPES (pH 7.5), 300 mM NaCl, 2 mM MgCl2, read-out: affinity to EHD2 determined by ITC): 13 ± 3 µM | affinity of the T94A mutant to ATP-γ-S by ITC (T94A mutant of EHD2): nearly wild-type affinity | binding to EHD2(T72A) by ITC (EHD2(T72A)): no binding observed; also recorded: prevented binding

B1: EHD2 T94A (enzyme, mouse, UniProt Q8BH64 1-543, looked up)
chain: T1 sequence (Q8BH64 1-543) with T94A
notes: mature; also called T94A mutant
binding result [2]: binds | liposome tubulation / oligomerisation by EM [3]: oligomerised around PS liposomes | membrane-stimulated ATPase activity (in words) (EHD2 [4]): did not show any membrane-stimulated ATPase activity | distribution of EGFP-tagged protein over-expressed in HeLa cells (HeLa cells; 24 h after transfection, fixed): extensive tubulation with no punctate stained; also recorded: labelled extensive tubular structures with essentially, no punctate staining | dynamics of tubules and puncta by EPI-fluorescence live imaging (HeLa cells; over-expressed 24 h, imaged approximately 30 min): only tubules, and these are mostly static
